# Laboratory results published in PMC9202514.
# B1: ZmITPK1 (Zea mays) (protein)
# chain: MASDAAAEPSSGVTHPPRYVIGYALAPKKQQSFIQPSLVAQAASRGMDLVPVDASQPLAEQGPFHLLIHKLYGDDWRAQLVAFAARHPAVPIVDPPHAIDRLHNRISMLQVVSELDHAADQDSTFGIPSQVVVYDAAALADFGLLAALRFPLIAKPLVADGTAKSHKMSLVYHREGLGKLRPPLVLQEFVNHGGVIFKVYVVGGHVTCVKRRSLPDVSPEDDASAQGSVSFSQVSNLPTERTAEEYYGEKSLEDAVVPPAAFINQIAGGLRRALGLQLFNFDMIRDVRAGDRYLVIDINYFPGYAKMPGYETVLTDFFWEMVHKDGVGNQQEEKGANHVVVK
# Substrate: Nc1ncnc2c1ncn2[C@@H]1O[C@H](COP(=O)(O)OP(=O)(O)OP(=O)(O)O)[C@@H](O)[C@H]1O
# Test: DIPP1-coupled Pi-release malachite green assay
# Format: biochemical, Zea mays
# Details: 25 μM InsP6, 3.5 mM MgCl2, 100 mM KCl, pH 7.2, 25 °C
protein,measurement,value
B1,Km,364 µM
